Experimental findings from patent EP4714976A1 (Sunshine Lake Pharma Co., Ltd., dated 2026) are described below.

B1: 3H9-VH1-VL2 (antibody, human IgG1, kappa)
heavy: not shown
light: DIQMTQSPSSLSASVGDRVTITCRASENIYSNLAWYQQKPGKSPKLLVYAATNLADGVPSRFSGSGSGTDYTLTISSLQPEDFATYYCQHFWGTPYTFGGGTKVEIKRTVAAPSVFIFPPSDEQLKSGTASVVCLLNNFYPREAKVQWKVDNALQSGNSQESVTEQDSKDSTYSLSSTLTLSKADYEKHKVYACEVTHQGLSSPVTKSFNRGEC
notes: humanized IgG1
B2: 3H9-VH3-VL1 (antibody, human IgG1, kappa, V domains shown)
VH: QVQLVQSGAEVKKPGASVKVSCKASGYTFSFYNMHWVKQAPGQGLEWIGLIYPDNGDTSYNQKFKGRATLTADTSTSTVYMELSSLRSEDTAVYYCARGGLDYWGQGTTVTVSS
VL: DIQMTQSPSSLSASVGDRVTITCRASENIYSNLAWYQQKPGKSPKLLIYAATNLADGVPSRFSGSGSGTDYTLTISSLQPEDFATYYCQHFWGTPYTFGGGTKVEIKR
notes: humanized IgG1
B3: 3H9-VH2-VL3 (antibody, human IgG1, kappa)
heavy: not shown
light: B1 light with V104L
notes: humanized IgG1
B4: 3H9-VH3-VL0 (antibody, human IgG1, kappa, V domains shown)
VH: B2 VH
VL: B2 VL with S43A, Y71F
notes: humanized IgG1
B5: 3H9-VH3-VL3 (antibody, human IgG1, kappa)
heavy: not shown
light: B1 light with V104L
notes: humanized IgG1
B6: 3H9-VH3-VL2 (antibody, human IgG1, kappa)
heavy: not shown
light: B1 light
notes: humanized IgG1
B7: 3H9-VH2-VL2 (antibody, human IgG1, kappa)
heavy: not shown
light: B1 light
notes: humanized IgG1
B8: 3H9-VH2-VL0 (antibody, human IgG1, kappa, V domains shown)
VH: B2 VH with K38R
VL: B2 VL with S43A, Y71F
notes: humanized IgG1
B9: 3H9-VH1-VL3 (antibody, human IgG1, kappa)
heavy: not shown
light: B1 light with V104L
notes: humanized IgG1
B10: 3H9-VH2-VL1 (antibody, human IgG1, kappa, V domains shown)
VH: B2 VH with K38R
VL: B2 VL
notes: humanized IgG1
B11: 3C7-VH1-VL2 (antibody, human IgG1, kappa, V domains shown)
VH: QVQLVQSGAEVKKPGASVKVSCKASGYIFTNYYIHWVRQAPGQGLEWMGAIYPDNGDTSYNQRFKVRATLTADTSTSTVYMELSSLRSEDTAVYYCARAFTYWGQGTTVTVSS
VL: DIQMTQSPSSLSASVGDRVTITCGASENIYGALNWYQRKPGKAPKLLIYGATNLADGVPSRFSGSGSGTDYTLTISSLQPEDFATYYCQNVLSTPYTFGGGTKLEIKR
notes: humanized IgG1
B12: 3C7-VH2-VL3 (antibody, human IgG1, kappa, V domains shown)
VH: B11 VH with T30R
VL: B11 VL with A43S, F83V
notes: humanized IgG1
B13: 3C7-VH1-VL3 (antibody, human IgG1, kappa, V domains shown)
VH: B11 VH
VL: B11 VL with A43S, F83V
notes: humanized IgG1
B14: 3C7-VH2-VL0 (antibody, human IgG1, kappa, V domains shown)
VH: B11 VH with T30R
VL: B11 VL with G24R, R38Q, Y71F, L104V
notes: humanized IgG1
B15: 3C7-VH2-VL1 (antibody, human IgG1, kappa, V domains shown)
VH: B11 VH with T30R
VL: B11 VL with R38Q, F83V, L104V
notes: humanized IgG1
B16: 3C7-VH3-VL2 (antibody, human IgG1, kappa, V domains shown)
VH: B11 VH with T30R, R38K
VL: B11 VL
notes: humanized IgG1
B17: 3C7-VH0-VL0 (antibody, human IgG1, kappa, V domains shown)
VH: B11 VH with I28T
VL: B11 VL with G24R, R38Q, Y71F, L104V
notes: humanized IgG1
B18: 3C7-VH0-VL3 (antibody, human IgG1, kappa, V domains shown)
VH: B11 VH with I28T
VL: B11 VL with A43S, F83V
notes: humanized IgG1
B19: 3C7-VH0-VL1 (antibody, human IgG1, kappa, V domains shown)
VH: B11 VH with I28T
VL: B11 VL with R38Q, F83V, L104V
notes: humanized IgG1
B20: 3C7-VH3-VL1 (antibody, human IgG1, kappa, V domains shown)
VH: B11 VH with T30R, R38K
VL: B11 VL with R38Q, F83V, L104V
notes: humanized IgG1
B21: 3C7-VH1-VL1 (antibody, human IgG1, kappa, V domains shown)
VH: B11 VH
VL: B11 VL with R38Q, F83V, L104V
notes: humanized IgG1
B22: 3C7-VH3-VL3 (antibody, human IgG1, kappa, V domains shown)
VH: B11 VH with T30R, R38K
VL: B11 VL with A43S, F83V
notes: humanized IgG1
B23: 3C7-VH1-VL0 (antibody, human IgG1, kappa, V domains shown)
VH: B11 VH
VL: B11 VL with G24R, R38Q, Y71F, L104V
notes: humanized IgG1
B24: 3C7-VH0-VL2 (antibody, human IgG1, kappa, V domains shown)
VH: B11 VH with I28T
VL: B11 VL
notes: humanized IgG1
B25: 3C7-VH3-VL0 (antibody, human IgG1, kappa, V domains shown)
VH: B11 VH with T30R, R38K
VL: B11 VL with G24R, R38Q, Y71F, L104V
notes: humanized IgG1

Residue numbers refer to the chain shown, from its start.

T2 sequence (P21802 other isoform, or with tags, fused parts or gaps): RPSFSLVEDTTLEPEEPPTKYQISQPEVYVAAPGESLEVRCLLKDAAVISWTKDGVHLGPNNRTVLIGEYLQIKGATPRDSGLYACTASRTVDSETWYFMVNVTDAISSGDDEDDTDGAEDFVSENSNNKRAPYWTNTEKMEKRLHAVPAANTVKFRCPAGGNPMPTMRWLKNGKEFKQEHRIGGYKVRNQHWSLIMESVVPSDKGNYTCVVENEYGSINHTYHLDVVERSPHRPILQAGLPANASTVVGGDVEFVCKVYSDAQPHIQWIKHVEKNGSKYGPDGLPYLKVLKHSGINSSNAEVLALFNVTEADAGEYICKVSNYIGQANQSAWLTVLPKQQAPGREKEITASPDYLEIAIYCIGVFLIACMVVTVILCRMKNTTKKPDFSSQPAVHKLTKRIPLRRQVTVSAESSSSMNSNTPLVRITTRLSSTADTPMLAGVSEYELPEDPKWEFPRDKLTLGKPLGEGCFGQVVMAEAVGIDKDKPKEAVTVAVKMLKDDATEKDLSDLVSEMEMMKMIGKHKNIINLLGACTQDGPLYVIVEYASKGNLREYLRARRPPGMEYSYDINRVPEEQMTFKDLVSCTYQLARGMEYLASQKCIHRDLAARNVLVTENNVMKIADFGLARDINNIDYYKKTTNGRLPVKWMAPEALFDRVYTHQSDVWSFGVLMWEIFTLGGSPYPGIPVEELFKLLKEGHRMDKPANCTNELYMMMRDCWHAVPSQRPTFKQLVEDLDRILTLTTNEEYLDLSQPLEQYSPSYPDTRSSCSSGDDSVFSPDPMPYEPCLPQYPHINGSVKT

The target of the first assay is T1, human FGFR2b (Kaixia Biotechnology, catalog number FGR-HM1BB) (human, UniProt P21802-3 22-378).
T1 construct: extracellular domain; bought; also called hFGFR2b; human FGFR2b protein
T1 sequence (P21802 other isoform, or with tags, fused parts or gaps): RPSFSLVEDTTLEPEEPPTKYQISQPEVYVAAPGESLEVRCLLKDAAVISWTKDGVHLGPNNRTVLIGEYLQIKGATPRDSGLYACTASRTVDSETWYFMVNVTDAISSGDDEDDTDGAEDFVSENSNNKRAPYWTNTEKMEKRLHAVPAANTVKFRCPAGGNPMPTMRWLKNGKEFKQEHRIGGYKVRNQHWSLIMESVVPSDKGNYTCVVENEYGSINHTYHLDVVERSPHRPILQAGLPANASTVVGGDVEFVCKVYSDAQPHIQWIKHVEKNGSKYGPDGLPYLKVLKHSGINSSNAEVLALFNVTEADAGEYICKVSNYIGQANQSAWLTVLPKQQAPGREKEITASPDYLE
Briefly: BLI, antibody on AHC2 sensor.
Consider B1, for which the Kd stood at 5.37 nM, the off-rate constant (koff) is 0.00232 s⁻¹ and the kon was determined as 432000 M⁻¹ s⁻¹.

In turn, B2 gave a Kd of 0.614 nM, a koff of 0.000324 s⁻¹ and a kon of 527000 M⁻¹ s⁻¹.

Molecule B3 came in with a Kd of 1.37 nM, a koff of 0.000788 s⁻¹ and an on-rate (kon) of 575000 M⁻¹ s⁻¹.

For B4, the affinity, expressed as Kd, was 3.13 nM; the dissociation rate constant (koff) turned out to be 0.000935 s⁻¹; the kon was determined as 299000 M⁻¹ s⁻¹.

B5 returned a dissociation constant (Kd) of 0.743 nM, an off-rate constant (koff) of 0.000399 s⁻¹ and a kon of 536000 M⁻¹ s⁻¹.

On to B6, for which the equilibrium dissociation constant (Kd) was determined as 0.709 nM, the koff was determined as 0.000373 s⁻¹ and the kon amounted to 526000 M⁻¹ s⁻¹.

Consider B7, for which the affinity, expressed as Kd, was 1.9 nM; the dissociation rate constant (koff) amounted to 0.000784 s⁻¹; the on-rate (kon) stood at 412000 M⁻¹ s⁻¹.

B8 returned a dissociation constant (Kd) of 2.64 nM, a koff of 0.00125 s⁻¹ and a kon of 473000 M⁻¹ s⁻¹.

Regarding B9, binding was characterised by a dissociation constant (Kd) of 5.05 nM, the off-rate (koff) came to 0.00254 s⁻¹ and the kon was found to be 503000 M⁻¹ s⁻¹.

For B10, the dissociation constant Kd stood at 1.32 nM, the koff is 0.000752 s⁻¹ and the kon came to 570000 M⁻¹ s⁻¹.

In turn, B11 returned an equilibrium dissociation constant (Kd) of 2.71 nM, an off-rate constant (koff) of 0.00115 s⁻¹ and an on-rate (kon) of 425000 M⁻¹ s⁻¹.

The molecule B12 had a dissociation constant Kd of 2.77 nM, a koff of 0.000754 s⁻¹ and an on-rate (kon) of 272000 M⁻¹ s⁻¹.

For B13, the dissociation constant Kd was determined as 3.04 nM, the koff worked out at 0.00122 s⁻¹ and the kon was 403000 M⁻¹ s⁻¹.

B14 returned a Kd of 1.63 nM, a koff of 0.000829 s⁻¹ and a kon of 509000 M⁻¹ s⁻¹.

B15 displayed a Kd of 2.92 nM, a koff of 0.000718 s⁻¹ and a kon of 246000 M⁻¹ s⁻¹.

With B16, the dissociation constant (Kd) turned out to be 2.48 nM, the off-rate (koff) was found to be 0.000829 s⁻¹ and the kon is 334000 M⁻¹ s⁻¹.

In the case of B17, the Kd stood at 10.4 nM, the koff was 0.00305 s⁻¹ and the association rate constant (kon) was 293000 M⁻¹ s⁻¹.

Molecule B18 showed a Kd of 13.6 nM, a koff of 0.00323 s⁻¹ and an on-rate (kon) of 238000 M⁻¹ s⁻¹.

Molecule B19 gave a Kd of 14 nM, a koff of 0.00315 s⁻¹ and an association rate constant (kon) of 224000 M⁻¹ s⁻¹.

In the case of B20, the Kd is 2.46 nM, the off-rate constant (koff) turned out to be 0.00106 s⁻¹ and the kon is 429000 M⁻¹ s⁻¹.

Molecule B21 showed a Kd of 3.24 nM, a koff of 0.00131 s⁻¹ and a kon of 405000 M⁻¹ s⁻¹.

The molecule B22 registered a Kd of 2.43 nM, a dissociation rate constant (koff) of 0.000777 s⁻¹ and a kon of 320000 M⁻¹ s⁻¹.

B23 showed a Kd of 1.89 nM, an off-rate (koff) of 0.000955 s⁻¹ and a kon of 504000 M⁻¹ s⁻¹.

B24 came in with a Kd of 11.6 nM, an off-rate (koff) of 0.00313 s⁻¹ and an on-rate constant (kon) of 269000 M⁻¹ s⁻¹.

Turning to B25, the equilibrium dissociation constant (Kd) was found to be 2.51 nM, the off-rate constant (koff) came out at 0.000831 s⁻¹ and the kon amounted to 331000 M⁻¹ s⁻¹.

Another assay addresses T2, FGFR2b on KATO III cells (human, UniProt P21802-3 22-822).
T2 construct: whole, on cells; also called KATO III cells that overexpress FGFR2b
Briefly: flow cytometry, KATO III cells. Background: Flow cytometry measures light scatter and fluorescence of single cells or particles in a stream.
Regarding B1, the 50% effective concentration (EC50) stood at 0.0909 µg/mL.

For the molecule B2, the EC50 was found to be 0.357 µg/mL.

Turning to B3, the EC50 came to 0.212 µg/mL.

In the case of B4, the EC50 was 0.437 µg/mL.

B5: the response was half-maximal at 0.554 µg/mL (EC50).

The molecule B6 gave an EC50 of 0.231 µg/mL.

B7 displayed an EC50 of 0.337 µg/mL. This EC50 and that of the molecule before are within 1.5-fold of each other.

B8 yielded an EC50 of 0.332 µg/mL. The EC50 values of the last two molecules are within 1.5-fold of each other.

B9 had an EC50 of 0.215 µg/mL.

As to B10, the EC50 turned out to be 0.309 µg/mL.

As to B11, the 50% effective concentration (EC50) came out at 0.601 µg/mL.

B12 showed an EC50 of 0.572 µg/mL.

B13 yielded a concentration for a half-maximal effect (EC50) of 0.565 µg/mL.

In turn, B14 gave an EC50 of 0.436 µg/mL.

B15: the 50% effective concentration (EC50) turned out to be 0.302 µg/mL.

The molecule B16 registered an EC50 of 0.523 µg/mL. This EC50 is about 1.7-fold higher than that of the molecule before.

For B17, the midpoint of the response, the EC50, lay at 0.384 µg/mL.

Molecule B18 displayed an EC50 of 0.443 µg/mL.

The molecule B19 came in with a concentration giving a half-maximal response (EC50) of 0.64 µg/mL.

B20: the midpoint of the response, the EC50, lay at 0.446 µg/mL.

As to B21, the 50% effective concentration (EC50) turned out to be 0.506 µg/mL.

Molecule B22 displayed a half-maximal effective concentration (EC50) of 0.536 µg/mL.

Regarding B23, it took 0.396 µg/mL to reach a half-maximal effect (EC50). This EC50 and that of the molecule before are within 1.5-fold of each other.

The molecule B24 came in with a concentration for a half-maximal effect (EC50) of 0.528 µg/mL.

The molecule B25 displayed a concentration for a half-maximal effect (EC50) of 0.624 µg/mL.

The Kd is the concentration at which binding is half-saturated. Higher therefore signals lower affinity. A word on the koff: it is the rate constant with which the complex falls apart. The low end stands for slow dissociation, the high end for fast dissociation. For orientation: kon means the rate constant with which the complex forms. As a reminder, the EC50 is the midpoint of the concentration-response curve.
